Source: patent publication US7127357 (dated 2006)
Non-standard residues stand in square brackets, D forms with d. No end group written: not given here. pS = N[C@@H](COP(=O)(O)O)C(=O)O

Target: F25Y
Assay: binding to CTD phosphopeptide

Binder: Y[pS]PT[pS]PS (also: tetramethylrhodamine label on an amine, place not given here) [CTD Repeat Tyr-P.Ser-Pro-Thr-P.Ser-Pro-Ser]
- Kd: 12 µM
